Test results as given in FireProtDB (doi:10.1371/journal.pone.0110439).

Conditions: Homo sapiens, pH 7, transition: 2, structure 1DXX; for ddG of mutation (higher = less stable) / unfolding free energy: Urea; for Tm / change of melting temperature, mutant - wild type (higher = more stable): Thermal
[1] = 25 °C, Fluorescence, PBS, reversible: yes
[2] = CD, sodium phosphate 0.1 M, NaCl 0.15 M, reversible: yes
[3] = Fluorescence, sodium phosphate 0.1 M, NaCl 0.15 M, reversible: yes

Substance: Dystrophin, P11532 K18N
- ddG of mutation (higher = less stable) [1]: 3.7 kcal/mol
- unfolding free energy [1]: 7.5 kcal/mol
- Tm (CD, PBS, reversible: no): 57.6 °C
- change of melting temperature, mutant - wild type (higher = more stable) (CD, PBS, reversible: no): -3.4 °C
- Tm [2]: 57.6 °C
- change of melting temperature, mutant - wild type (higher = more stable) [2]: -3.4 °C
- ddG of mutation (higher = less stable) [2]: 3.7 kcal/mol
- unfolding free energy [2]: 7.5 kcal/mol
- ddG of mutation (higher = less stable) [3]: 3.7 kcal/mol
- unfolding free energy [3]: 7.5 kcal/mol
